According to article PMC6210676:

Molecular target: calcium/calmodulin dependent protein kinase IIα (UniProt Q9UQM7)
Chain of UniProt Q9UQM7 (Q9UQM7 whole entry): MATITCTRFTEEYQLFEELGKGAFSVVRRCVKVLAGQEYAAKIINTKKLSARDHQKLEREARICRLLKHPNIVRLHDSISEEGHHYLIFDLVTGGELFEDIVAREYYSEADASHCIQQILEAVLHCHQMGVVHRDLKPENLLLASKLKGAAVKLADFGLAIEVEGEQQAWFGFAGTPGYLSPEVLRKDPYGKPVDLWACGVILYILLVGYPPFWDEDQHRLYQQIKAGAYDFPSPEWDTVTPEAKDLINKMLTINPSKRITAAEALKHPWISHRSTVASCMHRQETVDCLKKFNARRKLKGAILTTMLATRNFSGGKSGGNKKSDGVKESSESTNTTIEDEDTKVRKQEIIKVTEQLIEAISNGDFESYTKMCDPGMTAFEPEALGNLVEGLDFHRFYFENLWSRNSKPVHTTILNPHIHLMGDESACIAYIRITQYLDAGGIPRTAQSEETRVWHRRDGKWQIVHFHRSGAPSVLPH

Row | half maximal activation of CaMKIIα (phosphorylation of syntide-2, HPLC), calmodulin 10^-9 to 10^-6 M, 0.5 mM calcium chloride, 37° [nM] | Substance
1 | 129 | MetO77 calmodulin (from UniProt P0DP23 1-149) (natural protein)
2 | 64 | wild type calmodulin (recombinant, human) (from UniProt P0DP23 1-149) (natural protein)
